Values of other authors as cited in patent publication US20250352622A1, “GLP-1 FORMULATIONS AND THEIR USES” (Rose Pharma Inc., priority 2024, published 2025).
Read-outs that look alike come from different tables or passages of the source.

In the case of lixisenatide, the half-life (in vivo) is listed as “about 3 hours”.

For semaglutide, the t1/2 (in vivo) is given as “about 1 week”.

For tirzepatide, the t1/2 (in vivo) is given as “about 5 days”.

In the case of dulaglutide, the t1/2 (longer acting GLP-1 agonist) is listed as “about 90 hours”.
